Assay results from patent US20020115140A1.

Target: GPA1 protein (yeast) (UniProt P08539)
Assay: cell-based or functional assay

Sequence of UniProt P08539 (P08539 2-472 limits assumed): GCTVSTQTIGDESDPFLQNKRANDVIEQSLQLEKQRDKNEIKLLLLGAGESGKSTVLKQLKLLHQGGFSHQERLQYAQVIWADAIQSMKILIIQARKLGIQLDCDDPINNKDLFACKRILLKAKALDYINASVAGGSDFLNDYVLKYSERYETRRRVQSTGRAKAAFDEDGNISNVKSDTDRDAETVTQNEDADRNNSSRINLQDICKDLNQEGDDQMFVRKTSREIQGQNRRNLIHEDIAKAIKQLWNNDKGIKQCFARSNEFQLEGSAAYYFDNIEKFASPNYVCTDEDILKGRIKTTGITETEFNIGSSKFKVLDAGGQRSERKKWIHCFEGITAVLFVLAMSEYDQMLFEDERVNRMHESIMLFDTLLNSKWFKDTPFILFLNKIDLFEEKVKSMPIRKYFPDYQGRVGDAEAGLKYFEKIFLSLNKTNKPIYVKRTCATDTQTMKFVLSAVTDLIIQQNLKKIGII

diameter of growth inhibition zone; strain MY169 (sst2-, RATH1.1 under ADH2 promoter); 1 µg alpha factor: 0.8 cm
diameter of growth inhibition zone; strain MY169 (sst2-, RATH1.1 under ADH2 promoter); 10 µg alpha factor: 1.8 cm
diameter of growth inhibition zone; strain MY173 (SST2+, RATH1.1 under ADH2 promoter); 10 µg alpha factor: 1.6 cm
Substance: murine RATH1.1 gene product (from UniProt P97428 1-201)
